B1: CUL2^ZYG11B (residues 490–728) (domain or fragment)
chain: ELFIVRQLLQIVKQKTNQNSVDTTLKFTLSALWNLTDESPTTCRHFIENQGLELFMRVLESFPTESSIQQKVLGLLNNIAEVQELHSELMWKDFIDHISSLLHSVEVEVSYFAAGIIAHLISRGEQAWTLSRSQRNSLLDDLHSAILKWPTPECEMVAYRSFNPFFPLLGCFTTPGVQLWAVWAMQHVCSKNPSRYCSMLIEEGGLQHLYNIKDHEHTDPHVQQIAVAILDSLEKHIVR

Columns and labels:
[1] = molecular target: B1; test: ITC
[2] = molecular target: B1; test: ITC; remark: listed apart in the source
SNX11-degron peptide [3] = test: ITC; pre-formed ZYG11B/ORF10 N5 peptide complex
SNX11-degron peptide [4] = test: ITC

Binder | Ka [1] | also measured
GYINV [SARS-CoV-2 ORF10 N5 peptide] | 340000 M⁻¹ | 
GY [SARS-CoV-2 ORF10 N2 peptide] |  | Kd [2]: > 200 µM
GYI [SARS-CoV-2 ORF10 N3 peptide] | 69100 M⁻¹ | 
B1 |  | Kd (SNX11-degron peptide [3]): 5.23 µM; Kd (SNX11-degron peptide [4]): 0.4 µM
GYIN [SARS-CoV-2 ORF10 N4 peptide] | 193000 M⁻¹ | 
